Broadly, the % inhibition is the drop in the measured response relative to a control, in per cent. Lower therefore signals a response near the control.

The target of experiment [1] is T1, human DLL4, full length, overexpressed on CHO or HEK293 cells (human, UniProt Q9NR61 27-685).
T1 construct: also called CHO-hDLL4; CHO-hDII4
The experiment in a line: periplasmic extract; FMAT, Notch1/Fc on CHO-hDLL4. An excerpt:
(§1) All calculations are based on the FL1_total signal which comprises the average of the fluorescence per well times the number of counts per well.

In experiment [2] the target is T2, mouse DLL4, full length, overexpressed on CHO or HEK293 cells (mouse, UniProt Q9JI71 27-686).
T2 construct: whole, on cells; also called CHO-mDLL4; CHO-mDII4
T2 sequence (Q9JI71 27-686): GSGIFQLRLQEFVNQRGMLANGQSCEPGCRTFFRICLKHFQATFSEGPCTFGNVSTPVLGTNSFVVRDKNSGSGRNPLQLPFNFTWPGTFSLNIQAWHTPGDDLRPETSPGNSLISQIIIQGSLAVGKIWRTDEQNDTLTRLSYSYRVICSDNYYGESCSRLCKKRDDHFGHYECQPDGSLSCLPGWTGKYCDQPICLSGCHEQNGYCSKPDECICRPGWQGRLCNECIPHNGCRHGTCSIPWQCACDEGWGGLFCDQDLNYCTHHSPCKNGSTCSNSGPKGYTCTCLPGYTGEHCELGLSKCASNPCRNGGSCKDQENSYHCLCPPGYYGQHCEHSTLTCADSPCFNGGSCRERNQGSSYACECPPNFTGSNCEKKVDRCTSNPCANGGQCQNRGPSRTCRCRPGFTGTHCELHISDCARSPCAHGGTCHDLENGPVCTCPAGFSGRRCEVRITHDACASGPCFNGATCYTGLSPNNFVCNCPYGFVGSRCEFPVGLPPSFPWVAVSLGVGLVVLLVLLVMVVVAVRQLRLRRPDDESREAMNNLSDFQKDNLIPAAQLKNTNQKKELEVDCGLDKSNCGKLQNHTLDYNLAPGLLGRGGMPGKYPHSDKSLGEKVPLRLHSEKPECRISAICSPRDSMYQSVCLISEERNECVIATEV
Nature of the experiment: periplasmic extract; FMAT, Notch1/Fc on CHO-mDLL4.
Source text: as §1

In the next experiment the target is T3, recombinant human DLL4 (human, UniProt Q9NR61 25-522).
T3 construct: R&D Systems C-terminally His-tagged extracellular domain; also called rhDLL4; hDLL4; not shown: C-terminal His tag
Nature of the experiment: ProteOn off-rate screen, periplasmic extract, hDLL4 on chip. As to the method:
(§2) In a first cycle, amino acid substitutions are introduced randomly in both framework (FW) and complementary determining regions (CDR) using the error-prone PCR method. […] After a polish step, PCR products are inserted via unique restriction sites into a vector designed to facilitate phage display of the VHH library. […] No selections on murine DLL4 are included as (conservation of) cross-reactivity is assessed at the screening level. Individual mutants are produced as recombinant protein using an expression vector derived from pUC119, which contains the LacZ promoter, a resistance gene for ampicillin, a multiple cloning site and an ompA leader sequence (pAX50). E. coli TG1 cells are transformed with the expression vector library and plated on agar plates (LB+Amp+2% glucose). Single colonies are picked from the agar plates and grown in 1 mL 96-deep-well plates. VHH expression is induced by adding IPTG (1 mM). Periplasmic extracts (in a volume of ˜80 uL) are prepared according to standard methods and screened for binding to recombinant human and mouse DII4 in a ProteOn (BioRad, Hercules, Calif., USA) off-rate assay. […] Periplasmic extract of affinity matured clones is diluted 1/10 and injected across the “analyte channels” A1-A6. An average off-rate is calculated of the wild type clones present in the plate and served as a reference to calculate off-rate improvements.

A further experiment deals with T4, recombinant mouse DLL4 (mouse, UniProt Q9JI71 27-532).
T4 construct: extracellular domain; also called rmDLL4; mDLL4; not shown: C-terminal His tag
T4 sequence (Q9JI71 27-532): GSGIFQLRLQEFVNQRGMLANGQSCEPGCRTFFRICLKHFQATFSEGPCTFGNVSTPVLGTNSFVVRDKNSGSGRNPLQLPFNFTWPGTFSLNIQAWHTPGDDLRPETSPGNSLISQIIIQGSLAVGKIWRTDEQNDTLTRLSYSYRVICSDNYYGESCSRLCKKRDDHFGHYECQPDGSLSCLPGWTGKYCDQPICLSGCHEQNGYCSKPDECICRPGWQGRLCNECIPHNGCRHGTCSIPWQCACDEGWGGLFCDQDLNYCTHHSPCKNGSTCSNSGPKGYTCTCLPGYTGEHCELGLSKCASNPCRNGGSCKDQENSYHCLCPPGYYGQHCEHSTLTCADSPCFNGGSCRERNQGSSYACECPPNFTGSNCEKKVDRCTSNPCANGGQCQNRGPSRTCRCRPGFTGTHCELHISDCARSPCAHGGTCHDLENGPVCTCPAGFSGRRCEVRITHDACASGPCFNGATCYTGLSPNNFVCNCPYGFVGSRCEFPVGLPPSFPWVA
Nature of the experiment: ProteOn off-rate screen, periplasmic extract, mDLL4 on chip. Here is the method:
as §2

B1: DLLBII101H09 (VHH)
VHH: EVQLVESGGGLVQPGGSLRLSCAASGFTLGYYTIVWFRQAPGKERKGVSCISSRDGSRYYADSVKGRFTISRDNAKNTVYLRMNSLKPEDTAVYYCAAGPDCSSYDYWGQGTQVTVSS
notes: also called DLLBII101H9; DLL1BII101H09; not shown: C-terminal c-myc and His6 tags
For the molecule B1, the “% inhibition” value in experiment [1] amounted to 87%; in experiment [2] it was 75%.

B2: DLLBII83G01 (VHH)
VHH: EVQLVESGGGLVQAGGSLRLSCAASGRTFSNYIMGWFRQAPGKEREFVAGISRYADYTGYADSVKGRFTISRDNVKNTVYLRMNSLKPDDTAVYYCAANEGYCSGYGCYEDSGQYDYWGQGTQVTVSS
notes: also called DLLBII83G1; not shown: C-terminal c-myc and His6 tags
With B2, the “% inhibition” value in experiment [1] turned out to be 87%; in experiment [2], 93%.

B3: DLLBII95F02 (VHH)
VHH: EVQLVESGGGSVQAGGSLRLSCAASGRTFSSYAMGWFRQAPGKEREFVAAINWSGGYTYYADSVRGRFTISRDNAKNTVYLQMNSLKPEDTAVYYCAAPAPGSSGYEYDYWGQGTQVTVSS
notes: also called DLLBII95F2; not shown: C-terminal c-myc and His6 tags
Regarding B3, the “% inhibition” value in experiment [1] was found to be 81%; in experiment [2], 71%.

B4: DLLBII107C03 (VHH)
VHH: EVQLVESGGGLVQPGGSLRLSCEVSGSIGSVSDMRWYRQAPGLQYELVARITSGSITDYSDSVKGRFTISRDNAKNTVYLQMNSLKPEDTAVYYCNADVQHSAWLKPLTYWGQGTQVTVSS
notes: also called DLLBII107C3; not shown: C-terminal c-myc and His6 tags
Turning to B4, the “% inhibition” value in experiment [1] amounted to 75%; in experiment [2], 80%.

B5: DLLBII112A03 (VHH)
VHH: EVQLVESGGGLVQPGGSLRLSCAASGIRFSINGMGWYRQAPGKQREAVATITRGGIRDYTDSVKGRFTISRDIARNTVYLQMNNLKPEDSAVYYCNIDIYWGRGTQVTVSS
notes: also called DLLBII112A3; not shown: C-terminal c-myc and His6 tags
B5: the “% inhibition” value in experiment [1] stood at 72%; in experiment [2], 97%.

B6: DLLBII104A03 (VHH)
VHH: EVQLVESGGGLVQAGGSLRLSCAASGDIPRIAAMGWYRQAPGKQRELVATVSNAATTRYADSAKGRFTISRDNAKTVSLQMDNLKPEDTGVYYCYSLATTVTPSWVNYWGQGTQVTVSS
notes: also called DLLBII104A3; not shown: C-terminal c-myc and His6 tags
With B6, the “% inhibition” value in experiment [1] was found to be 86%; in experiment [2], 83%.

B7: DLLBII80E08 (VHH)
VHH: EVQLVESGGGLVQAGGSLTLSCAASGGTFTTYAMGWFRQAPGKEREFVAAVSRFGVSWDYADSVKGRFTISRDNTANTLKLRMNSLKADDTAVYYCAAGGRSFLPFVPAYWGQGTQVTVSS
notes: also called DLLBII80E8; not shown: C-terminal c-myc and His6 tags
Regarding B7, the results for the “% inhibition” value in experiment [1] and in experiment [2] were 71% and 82%, respectively.

B8: DLLBII58A11 (VHH)
VHH: EVQLVESGGGLVQAGGSLRLSCTTSERTVSRYSMGWFRQAPGKEREAVATISWSGDSTYYADSVKGRFTISRDNTKNTLYLQIDSLKPEDTAVYYCVAKPNLKYGSYWPPRGYDYWGQGTQVTVSS
notes: not shown: C-terminal c-myc and His6 tags
In the case of B8, the “% inhibition” value stood at 95% in experiment [1] and 73% in experiment [2].

B9: DLLBII102G04 (VHH)
VHH: EVQLMESGGGLVQPGGSLRLSCAASGFTFSSYAMSWVRQAPGKGLEWVSRITSGGRTTYRDSVKGRFTISRDNSKNTLYLQMNSLKPEDTALYYCAKARGDIDVYTLSDSRGQGTQVTVSS
notes: also called DLLBII102G4; not shown: C-terminal c-myc and His6 tags
Turning to B9, the figures for the “% inhibition” value in experiment [1] and in experiment [2] were 86% and 82%, respectively.

B10: DLLBII101H05 (VHH)
VHH: EVQLVESGGGSAQAGGSLRLSCAASGRTSSTYAMGWFRQAPGKEHEFVSAIGRGTGATSYGDSVKGRFTISRDNAKNTVYLQMNSLQLEDTGDYYCVAGRGFYHDYSSYEYRGQGTQVTVSS
notes: also called DLLBII101H5; not shown: C-terminal c-myc and His6 tags
Turning to B10, the “% inhibition” value in experiment [2] came out at 83%.

B11: DLLBII129A03 (VHH)
VHH: EVQLVESGGGLVQAGGSLRLSCAASGRTFSSYAMAWFRQAPGKEREYVAAIRWSGGTAYYADSVQGRFTISRDNAKNTVYLQMNSLRPEDTAVYYCANRAPDTRLRPYLYDYWGQGTQVTVSS
notes: not shown: C-terminal c-myc tag and (His)6 tag
B11: the “fold (off-rate improvement over DLLBII101G08)” value (“fold” for short) was 19 fold in the experiment with recombinant human DLL4 and 18 fold with recombinant mouse DLL4.

B12: DLLBII129E07 (VHH)
VHH: EVQLVESGGGLVQAGGSLRLSCSASGRTFSSYAMAWYRQAPGKEREYVAAIRWSGGTAYYPDSVQGRFTISRDNAKNTVYLQMNSLKPEDTAVYYCANRAPDTRLAPYEYDHWGQGTQVTVSS
Regarding B12, the “fold” value with recombinant human DLL4 turned out to be 21 fold; with recombinant mouse DLL4, 24 fold.

B13: DLLBII129B02 (VHH)
VHH: EVQLVESGGGLVQAGGSLSLSCAASGRTFSSYAMAWYRQAPGKEREYVAAIRWSGGTAYYADSVQGRFTISRDNAKNTVYLQMNSLKPEDTAVYYCANRAPDTRLEPYEYDHWGQGTQVTVSS
B13: the entries for the “fold” value with recombinant human DLL4 and with recombinant mouse DLL4 were 30 fold and 26 fold, respectively.

B14: DLLBII129E03 (VHH)
VHH: EVQLVESGGGLVQAGGSLRLSCAASGRTFSSYAMAWFRQAPGKDREYVAAIRWSGGTAYYADSVQGRFTISRDNAKNTVYLQMNSLKPEDTAVYYCANRAPDTRLAPYLYDYWGQGTQVTVSS
Take B14: the figures for the “fold” value with recombinant human DLL4 and in the experiment with recombinant mouse DLL4 were 20 fold and 18 fold, respectively.

B15: DLLBII129D01 (VHH)
VHH: EVQLVESGGGLVQAGGSLRLSCAASGRTFSSYAMAWFRQAPGKEREYVAAIRWSGGTAYYADSVQSRFTITRDNAKNTVYLQMNSLKPEDTAVYYCANRAPDTRLEPYLYDHWGQGTQVTVSS
As for B15, the “fold” value in the experiment with recombinant human DLL4 and in the experiment with recombinant mouse DLL4 was 26 fold each time.

B16: DLLBII101F01 (VHH)
VHH: EVQLVESGGGLVQAGGSLRLSCAASGRTFSNYAMGWFRQAPGKEREFVAAISWSGGDTYYADSVKGRFTISRDNAKNTVCLQMNSLKPEDTAVYYCAASFQSGAAPGANFYDYWGQGTQVTVSS
notes: also called DLLBII101F1; not shown: C-terminal c-myc and His6 tags
In the case of B16, the entries for the “% inhibition” value in experiment [1] and in experiment [2] were 85% and 78%, respectively.

B17: DLLBII102F08 (VHH)
VHH: EVQLVESGGGLVQTGDSLRLSCAASGSTFSNYRMGWFRQGPGKEREFVAAIGRNGQNTYYTDSVKGRFTVTRDNAKNMVYLQMNSLKPEDSAVYTCAASLRGWDTTRIDYEYWGQGTQVTVSS
notes: also called DLLBII102F8; not shown: C-terminal c-myc and His6 tags
Consider B17, for which the “% inhibition” value in experiment [1] was 85%; in experiment [2], 75%.

B18: DLLBII104C04 (VHH)
VHH: EVQLVESGGGLVQAGGSLRLSCAAAGSTFSSYVMGWYRQAPGKQRELVAHISTRGITYYADSVKGRFTISRDNAKNTMYLQMNSLKPEDTAVYYCNTRRNFLSNYWGQGTQVTVSS
notes: also called DLLBII104C4; not shown: C-terminal c-myc and His6 tags
For the molecule B18, the “% inhibition” value in experiment [1] amounted to 87%; in experiment [2], 83%.

B19: DLLBII112A04 (VHH)
VHH: EVQLVESGGGLVQAGGSLRLSCAAFGRTPYGMGWFRQAPGKEREFVAAITSDGSTNYADSVKGRFTISRDNAKNAVSLQMNSLKPEDTAVYYCTAPYYSDFEGTTTEYDYWGQGTQVTVSS
notes: also called DLLBII112A4; not shown: C-terminal c-myc and His6 tags
In the case of B19, the figures for the “% inhibition” value in experiment [1] and in experiment [2] were 75% and 90%, respectively.

B20: DLLBII47D01 (VHH)
VHH: EVQLVESGGGLVQPGGSLRLSCAASGFTFDDYAIGWFRQAPGKEREGVSCISSSGSTYYADSVKGRFTISRDNAKNTVYLQMNSLKPEDTAVYYCAIAGASSWCFPPGYWGQGTQVTVSS
notes: also called DLLBII47D1; not shown: C-terminal c-myc and His6 tags
In the case of B20, in experiment [1], the “% inhibition” value turned out to be 87%.

B21: DLLBII61F07 (VHH)
VHH: EVQLVESGGGLVQAGGSLRLSCAASGRTFSRYAMGWFRQAPGKEREFVAAINWSGGSTYYADSVKGRFTISRDNAKNTVYLQMNSLKPEDTAVYDCAASNYYSVYDDRPVMDYWGQGTQVTVSS
notes: also called DLLBII61F7; not shown: C-terminal c-myc and His6 tags
With B21, the entries for the “% inhibition” value in experiment [1] and in experiment [2] were 79% and 77%, respectively.

B22: DLLBII104B05 (VHH)
VHH: EVQLVESGGGSVQAGGSLRLSCAASGSISRIDVMAWYRQAPGKERELVASISSGGSTNYADSVKGRFTISREYFKNMMYLQMNSLKFEDTAVYYCNADSRRGGVGNFFRSWGQGTQVTVSS
notes: also called DLLBII104B5; DLLBII1040B05; not shown: C-terminal c-myc and His6 tags
Regarding B22, the “% inhibition” value in experiment [1] was determined as 86%; in experiment [2], 78%.

B23: DLLBII61F05 (VHH)
VHH: EVQLVESGGGLVQPGGSLRLSCTASGFTFSSYAMSWVRQAPGKGLEWVSFINKDGSDTGYADSVKGRFTISRDNAKNTMYLQMNSLKPEDTAVYFCETRTSRSPRPRGQGTQVTVSS
notes: also called DLLBII61F5; not shown: C-terminal c-myc and His6 tags
Take B23: the “% inhibition” value in experiment [1] came to 74%; in experiment [2], 76%.

B24: DLLBII112E07 (VHH)
VHH: EVQLVESGGGLVQAGGSLRLSCAASGRTVRSYATGWFRQAPGKEREFVAALRWSIGSIASVYYDDSVKGRFTISGDNAENTVYLQMNALKPEDTAIYYCASTTRGRYSALSASAYDYWGQGTQVTVSS
notes: also called DLLBII112E7; not shown: C-terminal c-myc and His6 tags
Regarding B24, the “% inhibition” value in experiment [1] amounted to 80%; in experiment [2], 85%.
